# Test results: PMC11350714 (JACS Au, 2024)
# Target: the molecule itself
# Assay: mass photometry
protein,measurement,value
MERS-CoV main protease (M^pro) (enzyme) SGLVKMSHPSGDVEACMVQVTCGSMTLNGLWLDNTVWCPRHVMCPADQLSDPNYDALLISMTNHSFSVQKHIGAPANLRVVGHAMQGTLLKLTVDVANPSTPAYTFTTVKPGAAFSVLACYNGRPTGTFTVVMRPNYTIKGSFLCGSCGSVGYTKEGSVINFCYMHQMELANGTHTGSAFDGTMYGAFMDKQVHQVQLTDKYCSVNVVAWLYAAILNGCAWFVKPNRTSVVSFNEWALANQFTEFVGTQSVDMLAVKTGVAIEQLLYAIQQLYTGFQGKQILGSTMLEDEFTPEDVNMQIMGVVMQ,stoichiometry N,2
